Source: the supplement of paper PMC10126150
± gives the standard deviation of the averaged measurements.
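Note: ATP exposure 15 min at 22 °C before imaging.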

Each sequence was assayed on ATP (assay: switch fluorescence ratio, 500 uM ATP over buffer (Cy3 cluster intensity, sum of 5 cycles each) (fold (ratio)); higher = stronger signal-on switching upon ATP binding; sequences stand for … in TCGTCGGCAGCGTCAGATGTGTATAAGAGACAGTTTTTTTTTTTTTTTTTTTTTTTTT…TC). Conditions: aptamer strand: ATP DNA aptamer (quencher-CACCTGGGGGAGTATTGCGGAGGAAGG + anchor), 100 nM annealed; ATP concentration: 500 uM.
Outline: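 Values give the fluorescence ratio for each switch-domain sequence, averaged from per-cluster ratios of summed target-cycle to summed buffer-cycle Cy3 intensity. The Cy3-labelled switching-strand clusters sat on a modified Illumina MiSeq flow-cell, were annealed to 100 nM quencher-labelled ATP aptamer, and were imaged in selection buffer, then after 15 min with 500 uM ATP at 22 °C. Five cycles ran with NaOH stripping and re-annealing between them, and clusters outside 100-1000 RFU were excluded.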
Work on CAGATTTTGA yielded a switch fluorescence ratio of 0.9804 ± 0.0045.
Work on ATGTACGTTT yielded a switch fluorescence ratio of 0.9983 ± 0.0007.
TGAAGACAAC showed a switch fluorescence ratio of 1.04 ± 0.025.
GGTGGAAGTA showed a switch fluorescence ratio of 0.998 ± 0.064.
Work on AGGGCTTTGT yielded a switch fluorescence ratio of 1 ± 0.014.
GCATGGCTTT gave a switch fluorescence ratio of 1.01 ± 0.023.
With TTTGAATGAT the switch fluorescence ratio was 0.984 ± 0.015.
In the case of ACTTGGTGTG, the switch fluorescence ratio is reported as 1.01 ± 0.052.
Sequence TTTGGCACGC has a switch fluorescence ratio of 1.11 ± 0.04.
Sequence AAAATGTAGA has a switch fluorescence ratio of 0.9919 ± 0.0016.
In the case of TTTTAATACC, the switch fluorescence ratio is reported as 1 ± 0.023.
CCGGGTTCGC showed a switch fluorescence ratio of 0.998 ± 0.083.
Work on ACACATCCGG yielded a switch fluorescence ratio of 1.06 ± 0.015.
Sequence GCGTTACGGT has a switch fluorescence ratio of 1.02 ± 0.0057.
AATTAGCAAG was tested, and the switch fluorescence ratio was 1.04 ± 0.018.
CATTGGGGGT was tested, and the switch fluorescence ratio was 1.04 ± 0.021.
Sequence TAGATCATGC has a switch fluorescence ratio of 0.994 ± 0.024.
GGGTGTCAGC gave a switch fluorescence ratio of 1.02 ± 0.017.
In the case of ATTGACTGAT, the switch fluorescence ratio is reported as 1.03 ± 0.044.
Work on CCCTTGGGGG yielded a switch fluorescence ratio of 1.01 ± 0.014.
For CGGGACGTGT, the switch fluorescence ratio was 0.969 ± 0.021.
With TTTGCAGTTT the switch fluorescence ratio was 0.997 ± 0.024.
TTTACGAGGT was tested, and the switch fluorescence ratio was 1.01 ± 0.037.
With TGTAATCTTC the switch fluorescence ratio was 1.01 ± 0.016.
Work on AGGTTATATT yielded a switch fluorescence ratio of 1.01 ± 0.024.
GGGCTTTTGG showed a switch fluorescence ratio of 0.9868 ± 0.0012.
GACGATGGGT showed a switch fluorescence ratio of 1.029 ± 0.0032.
Sequence ATTCGAGGTT has a switch fluorescence ratio of 0.987 ± 0.071.
For TGGGTTTGGC, the switch fluorescence ratio was 1.02 ± 0.023.
Sequence GGTTGGGGGA has a switch fluorescence ratio of 1.02 ± 0.024.
GAGCTCTTAT gave a switch fluorescence ratio of 1 ± 0.038.
With CTAATTGAGT the switch fluorescence ratio was 1.01 ± 0.014.
CTCTGGCGTT gave a switch fluorescence ratio of 1.51 ± 0.66.
In the case of ATTTTGCGGA, the switch fluorescence ratio is reported as 0.968 ± 0.013.
TAAAAAAACG gave a switch fluorescence ratio of 1.1 ± 0.021.
CGGGGTAGTG gave a switch fluorescence ratio of 0.999 ± 0.02.
In the case of GGCATCGTCG, the switch fluorescence ratio is reported as 0.97 ± 0.025.
ATAAGTGTGT was tested, and the switch fluorescence ratio was 0.958 ± 0.047.
With TATTGCGGCA the switch fluorescence ratio was 1.011 ± 0.0051.
GAGTTGCTTA was tested, and the switch fluorescence ratio was 1.006 ± 0.01.
Sequence TTTAAGGGAC has a switch fluorescence ratio of 1.05 ± 0.021.
Work on AGCCTGCCCT yielded a switch fluorescence ratio of 1.067 ± 0.0053.
Sequence AACGCGAGTA has a switch fluorescence ratio of 0.986 ± 0.03.
With TCGTGGTGGT the switch fluorescence ratio was 0.974 ± 0.018.
For TTATGTCAGA, the switch fluorescence ratio was 0.987 ± 0.034.
With TCAGAATTCA the switch fluorescence ratio was 1.01 ± 0.012.
CAAGGGGATT showed a switch fluorescence ratio of 1 ± 0.027.
Work on AATAAATGAT yielded a switch fluorescence ratio of 1.01 ± 0.022.
AAGGTTGTAA gave a switch fluorescence ratio of 0.985 ± 0.021.
Work on ATGATGGGTG yielded a switch fluorescence ratio of 1.01 ± 0.02.
With AGGCTAGTGG the switch fluorescence ratio was 0.993 ± 0.035.
Sequence CCGGACGGAA has a switch fluorescence ratio of 1.12 ± 0.071.
With TTTTTACTCG the switch fluorescence ratio was 0.9965 ± 0.005.
CGTGGGGAGG was tested, and the switch fluorescence ratio was 1.05 ± 0.017.
In the case of ACTTGGGCGT, the switch fluorescence ratio is reported as 1.03 ± 0.038.
Sequence ATTGGTAGGC has a switch fluorescence ratio of 1.03 ± 0.023.
Work on TGCACTGGGA yielded a switch fluorescence ratio of 1.04 ± 0.034.
GTGTATGAGA gave a switch fluorescence ratio of 1.002 ± 0.0083.
CATTGGTGAG showed a switch fluorescence ratio of 0.992 ± 0.032.
Sequence TGGGAACGTC has a switch fluorescence ratio of 1.0205 ± 2.8e-05.
TATGTTTCCT was tested, and the switch fluorescence ratio was 1.02 ± 0.037.
Work on TTTCGCATGA yielded a switch fluorescence ratio of 1.223 ± 0.006.
With ATGACGAAGC the switch fluorescence ratio was 1.57 ± 0.13.
Sequence GCGGGGTCTG has a switch fluorescence ratio of 0.985 ± 0.04.
For AGAGGTTAAG, the switch fluorescence ratio was 1.03 ± 0.08.
Work on TATGTACGGG yielded a switch fluorescence ratio of 1.0612 ± 0.00037.
With CAGCGGGACC the switch fluorescence ratio was 1.03 ± 0.025.
Work on AAGTTAAAAG yielded a switch fluorescence ratio of 0.975 ± 0.012.
In the case of TTTATGTGGG, the switch fluorescence ratio is reported as 1.05 ± 0.12.
For GCGGGGTCGG, the switch fluorescence ratio was 1.0083 ± 0.00048.
Work on ATTAGCAATG yielded a switch fluorescence ratio of 1.354 ± 0.006.
Sequence CCAGAGGCTA has a switch fluorescence ratio of 1.1475 ± 0.00019.
For ATGGGTGTGC, the switch fluorescence ratio was 1 ± 0.034.
Work on TAATAAGCGG yielded a switch fluorescence ratio of 0.976 ± 0.035.
Work on AGGGTTAGCA yielded a switch fluorescence ratio of 1.02 ± 0.021.
For CGGTAGGACA, the switch fluorescence ratio was 1 ± 0.011.
Work on GCCATTGAGG yielded a switch fluorescence ratio of 0.9668 ± 0.0031.
Sequence CGAGGGAGGG has a switch fluorescence ratio of 0.999 ± 0.015.
Work on CTTCTTGCTG yielded a switch fluorescence ratio of 0.972 ± 0.011.
For GAAAGGGTTG, the switch fluorescence ratio was 0.968 ± 0.035.
CCAGGGCGGG was tested, and the switch fluorescence ratio was 0.99 ± 0.043.
ATTGATTTAA gave a switch fluorescence ratio of 0.9989 ± 0.0086.
TATGTGTTGG gave a switch fluorescence ratio of 0.992 ± 0.025.
TTTCTGTTCG gave a switch fluorescence ratio of 0.989 ± 0.024.
TTTTTAGTTC was tested, and the switch fluorescence ratio was 0.98 ± 0.027.
Work on AGTCAGGCGA yielded a switch fluorescence ratio of 1.01 ± 0.078.
In the case of TTACGTGTGA, the switch fluorescence ratio is reported as 1.05 ± 0.073.
With AATTAGTCTA the switch fluorescence ratio was 1.01 ± 0.03.
ACTTTCTTAC gave a switch fluorescence ratio of 1.12 ± 0.017.
GTCTATACAT showed a switch fluorescence ratio of 0.973 ± 0.028.
For AGTGAGTGCT, the switch fluorescence ratio was 0.9751 ± 0.0059.
In the case of GTGTGGTGTT, the switch fluorescence ratio is reported as 0.986 ± 0.016.
GGTGGGGTAT gave a switch fluorescence ratio of 0.98 ± 0.021.
TGGTAGAGGG showed a switch fluorescence ratio of 0.986 ± 0.014.
For ATTTTTGGGC, the switch fluorescence ratio was 0.993 ± 0.024.
In the case of ACTCGCTGGG, the switch fluorescence ratio is reported as 1.11 ± 0.018.
Work on TTTTTTGGGA yielded a switch fluorescence ratio of 1.01 ± 0.019.
Sequence GACGGGGCAG has a switch fluorescence ratio of 0.995 ± 0.015.
GAATCATACA was tested, and the switch fluorescence ratio was 1.05 ± 0.074.
In the case of TTAATAGTTG, the switch fluorescence ratio is reported as 0.97177 ± 0.00065.
For GGCTTAGTTG, the switch fluorescence ratio was 0.982 ± 0.0024.
TAATTGGACG showed a switch fluorescence ratio of 1.12 ± 0.062.
In the case of ATGTCTGGGA, the switch fluorescence ratio is reported as 1 ± 0.037.
Sequence TTTGAGGGGC has a switch fluorescence ratio of 0.995 ± 0.024.
Sequence CGCAATTCGA has a switch fluorescence ratio of 3.57 ± 1.3.
CTCCATTGAT was tested, and the switch fluorescence ratio was 1.01 ± 0.042.
For TTTTTTACTA, the switch fluorescence ratio was 1.023 ± 0.0015.
Work on GGGGCTCATA yielded a switch fluorescence ratio of 0.9876 ± 0.0072.
Sequence ATCCGTAGGT has a switch fluorescence ratio of 0.995 ± 0.029.
Work on CTTGTCATGA yielded a switch fluorescence ratio of 1.02 ± 0.017.
Sequence GCGTTATTGG has a switch fluorescence ratio of 1.03 ± 0.018.
In the case of AAAGGTAAGG, the switch fluorescence ratio is reported as 0.965 ± 0.016.
In the case of GGGTACCGTA, the switch fluorescence ratio is reported as 0.959 ± 0.068.
GGATTTAATG gave a switch fluorescence ratio of 0.9523 ± 0.0057.
In the case of GCGTCAGGAT, the switch fluorescence ratio is reported as 1.0442 ± 0.00058.
In the case of CGTTAGTGCG, the switch fluorescence ratio is reported as 1 ± 0.025.
For TTGGGTTAGG, the switch fluorescence ratio was 0.979 ± 0.021.
TGGTTGATTG was tested, and the switch fluorescence ratio was 0.975 ± 0.047.
With GGGTGGGTA the switch fluorescence ratio was 1.03 ± 0.03.
TTGCTTCGTT showed a switch fluorescence ratio of 1.02 ± 0.029.
With TGAGTTTTAC the switch fluorescence ratio was 1.04 ± 0.03.
With ACTACTGGCT the switch fluorescence ratio was 1.047 ± 0.0089.
ATGGCGAGGG gave a switch fluorescence ratio of 0.989 ± 0.017.
AAATTTATTT showed a switch fluorescence ratio of 0.9932 ± 0.0038.
With TCGTTTTGCT the switch fluorescence ratio was 0.981 ± 0.017.
For TTTCTGGTCG, the switch fluorescence ratio was 0.964 ± 0.019.
For AAACGAAGGA, the switch fluorescence ratio was 1.09 ± 0.069.
With AGGGAATGTT the switch fluorescence ratio was 0.972 ± 0.033.
TAGGTTGGTG showed a switch fluorescence ratio of 1 ± 0.036.
Work on ACATTCTACG yielded a switch fluorescence ratio of 1.25 ± 0.017.
With GGCTAATGGG the switch fluorescence ratio was 1.021 ± 0.0043.
Sequence TTGGGCGATT has a switch fluorescence ratio of 1.06 ± 0.045.
For GCATTATAT, the switch fluorescence ratio was 1.03 ± 0.023.
TTATAGGCGC showed a switch fluorescence ratio of 1.03 ± 0.029.
With AGGGTAAATT the switch fluorescence ratio was 1.03 ± 0.053.
TCGCTAACGG was tested, and the switch fluorescence ratio was 1.07 ± 0.018.
Work on TTCCTTGCGG yielded a switch fluorescence ratio of 1.08 ± 0.057.
With ATGGAGGCG the switch fluorescence ratio was 1.03 ± 0.013.
ATAGGGGCTT gave a switch fluorescence ratio of 0.9989 ± 0.0085.
Work on ACGGGTGGCG yielded a switch fluorescence ratio of 0.95 ± 0.11.
Sequence GCCGGGTTGA has a switch fluorescence ratio of 1.03 ± 0.048.
In the case of ATGGTTTGTA, the switch fluorescence ratio is reported as 0.9744 ± 0.0088.
Sequence CATTTGATCC has a switch fluorescence ratio of 0.978 ± 0.0026.
CAGGGGGGAC gave a switch fluorescence ratio of 1 ± 0.022.
Work on GGTAAAAATT yielded a switch fluorescence ratio of 0.98453 ± 0.00014.
Work on GTGGTTTCTG yielded a switch fluorescence ratio of 0.984 ± 0.1.
GTCGATTTTT was tested, and the switch fluorescence ratio was 0.992 ± 0.044.
With TTGAGGGAGC the switch fluorescence ratio was 1.09 ± 0.038.
In the case of AAGTTCGCTG, the switch fluorescence ratio is reported as 1.01 ± 0.065.
With TAAATGTGGA the switch fluorescence ratio was 0.972 ± 0.03.
For TTAAGCCTGT, the switch fluorescence ratio was 0.969 ± 0.021.
TTACTCTTCT was tested, and the switch fluorescence ratio was 0.972 ± 0.04.
CATGCGGGGG was tested, and the switch fluorescence ratio was 1.01 ± 0.013.
For GTAAGGGGGA, the switch fluorescence ratio was 0.984 ± 0.031.
AACGTAGCGG showed a switch fluorescence ratio of 1.07 ± 0.03.
With TAACGTGGTG the switch fluorescence ratio was 1.05 ± 0.019.
In the case of TCATCTTTTT, the switch fluorescence ratio is reported as 0.9477 ± 0.0022.
